Laboratory results from the supplement of paper PMC12042874.
± gives the uncertainty stated by the source.

Experiment: amyloid nucleation score (Sup35N fusion, yeast selection) (log enrichment); library NNK2; higher = more nucleation; inactive = no reads after selection
Outline: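 On medium lacking adenine and uracil, psi-negative yeast expressing peptides of 20 random codons fused to Sup35N were grown 7 days at 30°C after a 24-hour induction with 100 μM copper sulfate. Illumina sequencing of input and output plasmid inserts gave the reads, and sequences under 100 input reads were excluded. The nucleation score is the DiMSum log enrichment of output over input reads, centred on the mode score of non-aggregating sequences.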

Substance	amyloid nucleation score
LYERFIVENDCFQNHMKHEA	inactive
WVYNLALCNSRVIKG	-0.51 ± 0.48
NPGGMQDEQEVVIWAPTRFL	-0.161 ± 0.39
TIPVRPTMEYCTQLLTLLQ	0.293 ± 0.47
TSSTTGSYLWEDEDYSYNFF	1.68 ± 0.12
VNGYIPRNAAVGQYATRALK	-0.032 ± 1.1
AIRLLDVLRCRG	3.88 ± 0.087
SYIGFVSIGSNMNRCSFDKF	-0.116 ± 0.29
FMSGGVVYSLMTGTR	0.388 ± 0.36
IVILDRFSPCSRTNE	0.45 ± 0.8
ASWYRMWMWCEHTSSRLCVK	5.268 ± 0.037
SLSYATTFF	0.476 ± 0.24
GIVYVALSHYLAVNTKVFMP	0.477 ± 0.66
SRVFRSRMDGPFQWSGMGEV	2.24 ± 0.076
NDYLFIFHLFCLVSCLMNKW	-0.228 ± 1.1
SMVVGMGSCPNVTRGAGLKR	1.06 ± 0.17
HFMRLYSKVLILLAEKRTAP	0.083 ± 0.76
QLYYMKF	5.685 ± 0.042
EKWLGLFKTYAESFDSCCLG	-0.581 ± 0.29
LQSCAGTFTCDCVVGRNYGR	0.31 ± 0.23
CMDQNVEPCSLVWQTYFPCY	-0.419 ± 0.6

Substance	amyloid nucleation score
FVRQDYKRVRDLFPTLNFDK	-0.949 ± 0.64
CIKVCALGCVDGVLVWERRW	0.538 ± 0.27
TLAWGSGELTTLTADEDLPS	0.58 ± 0.19
YHVVAWSWTRSYV	0.561 ± 0.4
NGSESAYGNSLWLCLLEAAI	inactive
QSTFFCTLQLGSKYFKECLS	-1.22 ± 0.61
RFLKNRMLNCKVIGIWWKCY	inactive
WSTSFYLLIFTPRVCCMDFF	5.619 ± 0.034
TGVKRIMSGSIIFPFLAVSF	-0.751 ± 1.1
LTSISYIIGDRWSIEVGRVF	-0.337 ± 1.1
GIFSCRLCSMLIELLMLRIM	-0.505 ± 1.1
PKIMKFGKCYTP	0.065 ± 0.28
CTAYYCDVSLNYVVRYNFPL	inactive
SVYNWYIIPANCEQDLCM	5.54 ± 0.095
YVCFQFFDTC	8.406 ± 0.038
AILFSIFISVGRKWLFSASH	-1.78 ± 1.1
NMTHEA	-0.219 ± 0.63
RFTLIFCGSRESNGG	6.43 ± 0.065
FRALKMISDPSRHSVLL	-0.02 ± 0.34
CMRVRCFSILNSAFCKCEMA	-1.62 ± 1.1
TIMNYTGCYFGPVGPDRDLG	6.824 ± 0.042

Substance	amyloid nucleation score
RCGCHDCVFLR	-0.202 ± 0.46
TLGSLLLLMSWVEGLQKHLI	0.888 ± 0.48
TMKWLCN	4.69 ± 0.054
NSELLFLGVEWNRT	-0.142 ± 0.79
WGIWFKPALFRNLYTIFAWL	inactive
GRNLMLSGVCGYKDVFLQAR	0.359 ± 0.34
DNILICMYGDVYMGCYCQAI	8.632 ± 0.05
VFLYYRTILMWVVSGLL	-0.449 ± 0.63
YIKFDGSTWKGVVFYYEMWE	-1.12 ± 0.76
FMLFRRGKNQRFRRLTDYKN	-2.44 ± 1.1
RSCSMMVVHLYRGYGKFDTP	-0.354 ± 0.76
DIVMCFLGRHHQSTEAGLSM	4.49 ± 0.056
RHAASVWLKDQDVLYPTMT	0.995 ± 0.16
ICTGVSTHIEPRPLTELCFR	2.6 ± 0.073
LVVCEMY	0.348 ± 0.25
IQVRRITG	0.089 ± 0.29
KFSTLCRISYITYLFFG	6.336 ± 0.049
MFLSNDIAFVKNVLNRIRYL	-0.642 ± 0.78
QNRLLDFFSEPTSRS	-1.16 ± 1.1
NLLLFYPAISVSCVNYTMRV	7.127 ± 0.052
NDTCIRLWRWLRAQDSWLGN	0.668 ± 0.37

Substance	amyloid nucleation score
KVTSMHVFIESWGV	0.082 ± 0.79
MVIWFPLEIMIRIRSPL	-0.766 ± 0.48
MTNSLCSTCIMFYSMCMNST	7.79 ± 0.08
NRNQRSVDRCGFSWYGTQIG	1.3 ± 0.32
SNLSRDESRVGSTGEQGDGG	-0.38 ± 0.55
ILDFKWNYYG	3.05 ± 0.11
RSSSNWSTSGGILRYVVLPK	-0.151 ± 0.42
FPTIDRQVFDVRR	-1.17 ± 0.41
VLSMDLQVIRSWKICSVSRK	0.799 ± 0.17
DYVSGYRVGQFVMLLGRLRN	-0.205 ± 0.55
AEYSSAKGFD	-0.794 ± 0.55
KVFNSLASYSSIDLWCVVAG	inactive
YFGVEKDEFPPLLGMHMF	-1.59 ± 0.75
FYTYCSLGWTEAAGAVFLES	-1.34 ± 0.75
TDGDRFSCRVKWNRHEDQRT	0.463 ± 0.24
ERDGSIMCSWTVSEHKSCGY	inactive
QSTWSHGFKGRSVWRGLTKG	1.66 ± 0.36
WYMLLRESPGSCPVGDEQGR	0.923 ± 0.81
CMSIHCVTTSRVLKFNSKWY	3.11 ± 0.15
IDYQKMLVSDCGD	0.363 ± 0.46
VIRVESCPVYFYLTTRTAGS	0.633 ± 0.8
